Assay results taken from IntAct's records for PubMed 16837009.

B1: Serine/threonine-protein kinase PAK 2 (Homo sapiens), Q13177 (parent)
chain: MSDNGELEDKPPAPPVRMSSTIFSTGGKDPLSANHSLKPLPSVPEEKKPRHKIISIFSGTEKGSKKKEKERPEISPPSDFEHTIHVGFDAVTGEFTGMPEQWARLLQTSNITKLEQKKNPQAVLDVLKFYDSNTVKQKYLSFTPPEKDGFPSGTPALNAKGTEAPAVVTEEEDDDEETAPPVIAPRPDHTKSIYTRSVIDPVPAPVGDSHVDGAAKSLDKQKKKTKMTDEEIMEKLRTIVSIGDPKKKYTRYEKIGQGASGTVFTATDVALGQEVAIKQINLQKQPKKELIINEILVMKELKNPNIVNFLDSYLVGDELFVVMEYLAGGSLTDVVTETCMDEAQIAAVCRECLQALEFLHANQVIHRDIKSDNVLLGMEGSVKLTDFGFCAQITPEQSKRSTMVGTPYWMAPEVVTRKAYGPKVDIWSLGIMAIEMVEGEPPYLNENPLRALYLIATNGTPELQNPEKLSPIFRDFLNRCLEMDVEKRGSAKELLQHPFLKLAKPLSSLTPLIMAAKEAMKSNR

Variants of: B1
Conditions: with limk1_human LIMK1, P53667
Sequence of limk1_human LIMK1, P53667 (P53667 whole entry, looked up): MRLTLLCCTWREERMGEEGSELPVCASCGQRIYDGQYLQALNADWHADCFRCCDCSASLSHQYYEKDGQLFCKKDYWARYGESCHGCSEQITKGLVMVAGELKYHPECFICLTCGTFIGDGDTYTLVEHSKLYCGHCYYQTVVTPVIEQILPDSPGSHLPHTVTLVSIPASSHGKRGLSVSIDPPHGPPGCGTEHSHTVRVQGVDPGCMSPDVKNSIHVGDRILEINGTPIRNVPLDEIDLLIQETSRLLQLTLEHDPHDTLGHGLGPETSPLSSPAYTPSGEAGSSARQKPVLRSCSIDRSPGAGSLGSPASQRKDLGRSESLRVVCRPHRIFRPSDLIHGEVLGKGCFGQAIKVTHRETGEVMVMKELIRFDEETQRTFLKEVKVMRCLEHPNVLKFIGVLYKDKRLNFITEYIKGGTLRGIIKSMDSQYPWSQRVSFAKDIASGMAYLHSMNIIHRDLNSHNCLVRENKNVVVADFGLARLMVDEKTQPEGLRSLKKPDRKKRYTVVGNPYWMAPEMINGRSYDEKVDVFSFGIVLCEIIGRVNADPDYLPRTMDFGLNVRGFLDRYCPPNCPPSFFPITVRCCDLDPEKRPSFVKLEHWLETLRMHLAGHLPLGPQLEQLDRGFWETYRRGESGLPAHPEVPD

Row | Variant | effect of a mutation on the interaction
1 | L449Q | increasing interaction
